Data: IntAct's records for PubMed 15811349

What was measured:
[1] = target: pick1_mouse Pick1 (UniProt Q62083)
[2] = target: afad_human AFDN (UniProt P55196)
Chain of UniProt P55196 (P55196 whole entry): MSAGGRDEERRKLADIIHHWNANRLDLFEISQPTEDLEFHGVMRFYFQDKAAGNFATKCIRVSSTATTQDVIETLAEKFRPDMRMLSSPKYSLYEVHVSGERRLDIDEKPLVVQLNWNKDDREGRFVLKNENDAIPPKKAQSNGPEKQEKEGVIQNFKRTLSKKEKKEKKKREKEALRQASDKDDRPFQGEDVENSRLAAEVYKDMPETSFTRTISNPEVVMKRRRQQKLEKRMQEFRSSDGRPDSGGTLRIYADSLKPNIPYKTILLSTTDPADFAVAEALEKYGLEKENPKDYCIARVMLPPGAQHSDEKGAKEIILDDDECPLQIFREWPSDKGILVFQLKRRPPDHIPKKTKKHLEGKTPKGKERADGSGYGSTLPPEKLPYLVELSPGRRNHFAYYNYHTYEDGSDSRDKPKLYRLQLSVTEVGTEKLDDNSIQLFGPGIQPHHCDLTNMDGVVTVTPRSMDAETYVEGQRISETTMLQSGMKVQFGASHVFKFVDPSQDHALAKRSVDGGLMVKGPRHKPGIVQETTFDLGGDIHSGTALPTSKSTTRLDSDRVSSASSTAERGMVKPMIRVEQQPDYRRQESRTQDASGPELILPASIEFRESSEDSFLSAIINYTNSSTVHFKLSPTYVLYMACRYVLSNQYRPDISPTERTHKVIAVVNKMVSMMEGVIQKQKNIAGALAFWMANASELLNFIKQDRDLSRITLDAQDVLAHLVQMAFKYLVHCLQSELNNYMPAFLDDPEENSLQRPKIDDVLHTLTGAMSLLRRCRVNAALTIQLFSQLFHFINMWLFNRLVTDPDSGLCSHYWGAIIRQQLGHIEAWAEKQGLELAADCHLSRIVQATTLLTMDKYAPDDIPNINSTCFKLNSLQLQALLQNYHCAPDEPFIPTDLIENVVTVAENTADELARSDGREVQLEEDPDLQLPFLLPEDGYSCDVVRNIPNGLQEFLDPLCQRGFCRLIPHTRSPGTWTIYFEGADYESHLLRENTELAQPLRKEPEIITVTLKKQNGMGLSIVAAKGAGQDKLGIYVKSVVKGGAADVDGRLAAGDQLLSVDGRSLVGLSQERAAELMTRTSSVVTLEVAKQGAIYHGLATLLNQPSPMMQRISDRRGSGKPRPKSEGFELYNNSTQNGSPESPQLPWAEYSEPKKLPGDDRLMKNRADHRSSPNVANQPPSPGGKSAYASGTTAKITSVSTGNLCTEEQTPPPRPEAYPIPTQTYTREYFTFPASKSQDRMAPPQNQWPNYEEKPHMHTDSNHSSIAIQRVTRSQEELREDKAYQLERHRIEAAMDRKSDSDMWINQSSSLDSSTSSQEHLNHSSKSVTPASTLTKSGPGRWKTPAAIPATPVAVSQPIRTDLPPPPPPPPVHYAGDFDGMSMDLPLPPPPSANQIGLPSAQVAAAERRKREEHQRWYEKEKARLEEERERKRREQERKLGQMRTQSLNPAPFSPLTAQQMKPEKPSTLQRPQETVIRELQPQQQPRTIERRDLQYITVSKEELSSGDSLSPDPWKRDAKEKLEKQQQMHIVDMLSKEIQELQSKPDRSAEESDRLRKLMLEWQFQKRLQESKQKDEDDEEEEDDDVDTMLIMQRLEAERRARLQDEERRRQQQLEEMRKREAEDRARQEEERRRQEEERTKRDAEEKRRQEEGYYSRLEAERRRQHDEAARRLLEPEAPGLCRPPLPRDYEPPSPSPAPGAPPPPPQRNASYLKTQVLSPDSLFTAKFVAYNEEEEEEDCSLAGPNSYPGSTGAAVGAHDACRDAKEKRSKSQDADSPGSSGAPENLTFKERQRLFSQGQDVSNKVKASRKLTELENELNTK

Chain of UniProt Q62083 (Q62083 whole entry): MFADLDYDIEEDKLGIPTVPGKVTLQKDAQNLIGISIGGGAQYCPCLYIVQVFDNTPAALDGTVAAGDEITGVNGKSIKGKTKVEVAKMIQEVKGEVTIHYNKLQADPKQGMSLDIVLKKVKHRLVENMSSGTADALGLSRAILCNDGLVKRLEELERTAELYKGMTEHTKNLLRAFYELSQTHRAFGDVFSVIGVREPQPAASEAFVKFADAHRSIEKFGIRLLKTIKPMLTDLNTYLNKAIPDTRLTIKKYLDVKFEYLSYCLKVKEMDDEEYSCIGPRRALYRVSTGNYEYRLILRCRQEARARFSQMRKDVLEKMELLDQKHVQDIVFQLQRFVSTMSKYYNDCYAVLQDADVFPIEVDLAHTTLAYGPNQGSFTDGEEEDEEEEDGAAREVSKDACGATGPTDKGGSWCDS

Substance	effect of a mutation on the interaction [1]	effect of a mutation on the interaction [2]
Nectin-3 (Homo sapiens) (from UniProt Q9NQS3) E546G	disrupting interaction	–
Nectin-3 (Homo sapiens) (from UniProt Q9NQS3) Y548A	–	disrupting interaction
Nectin-3 (Homo sapiens) (from UniProt Q9NQS3) V549A	decreasing interaction	disrupting interaction
